Assay results as given in paper PMC11046300 (The Journal of Biological Chemistry, 2024).
Changes are numbered by the printed parent chain.

T1: GST-NF2 FERM domain (1-341 aa) (human, UniProt P35240 1-341)
T1 sequence (looked up): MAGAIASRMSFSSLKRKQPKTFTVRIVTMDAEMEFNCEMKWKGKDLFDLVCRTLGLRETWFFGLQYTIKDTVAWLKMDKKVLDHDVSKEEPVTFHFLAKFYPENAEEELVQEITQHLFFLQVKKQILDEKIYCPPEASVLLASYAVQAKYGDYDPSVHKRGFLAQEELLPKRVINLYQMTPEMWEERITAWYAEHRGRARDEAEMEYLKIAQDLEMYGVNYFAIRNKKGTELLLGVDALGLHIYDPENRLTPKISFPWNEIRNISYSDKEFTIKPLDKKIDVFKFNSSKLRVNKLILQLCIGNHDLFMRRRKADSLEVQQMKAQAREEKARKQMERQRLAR

T2: GST-NF2 C-terminal half (342-595 aa) (human, UniProt P35240 342-595)
T2 sequence (looked up): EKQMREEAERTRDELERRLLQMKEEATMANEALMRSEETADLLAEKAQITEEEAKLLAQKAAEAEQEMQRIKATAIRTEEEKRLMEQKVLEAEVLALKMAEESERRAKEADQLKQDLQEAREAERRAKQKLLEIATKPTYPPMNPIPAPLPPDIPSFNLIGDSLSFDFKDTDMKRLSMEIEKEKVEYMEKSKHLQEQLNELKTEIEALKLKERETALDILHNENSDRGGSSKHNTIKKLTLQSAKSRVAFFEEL

T3: GST-tagged full-length NF2 (human, UniProt P35240 1-595)
T3 sequence (looked up): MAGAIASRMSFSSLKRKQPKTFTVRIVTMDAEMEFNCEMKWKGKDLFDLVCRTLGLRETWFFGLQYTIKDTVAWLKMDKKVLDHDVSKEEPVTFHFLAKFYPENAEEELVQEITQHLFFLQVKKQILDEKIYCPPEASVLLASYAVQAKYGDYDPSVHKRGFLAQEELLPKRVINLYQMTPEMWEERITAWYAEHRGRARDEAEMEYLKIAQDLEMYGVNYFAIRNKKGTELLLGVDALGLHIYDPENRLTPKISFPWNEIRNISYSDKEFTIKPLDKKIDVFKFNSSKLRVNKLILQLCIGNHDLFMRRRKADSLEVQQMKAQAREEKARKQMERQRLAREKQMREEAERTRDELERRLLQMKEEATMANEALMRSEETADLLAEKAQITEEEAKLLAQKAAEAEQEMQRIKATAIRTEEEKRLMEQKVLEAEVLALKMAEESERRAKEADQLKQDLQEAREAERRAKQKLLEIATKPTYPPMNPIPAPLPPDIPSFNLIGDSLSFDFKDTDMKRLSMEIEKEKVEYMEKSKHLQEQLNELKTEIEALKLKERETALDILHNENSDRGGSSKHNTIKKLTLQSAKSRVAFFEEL

T4: MBP-NF2 (18-595) (human, UniProt P35240 18-595)
T4 sequence (looked up): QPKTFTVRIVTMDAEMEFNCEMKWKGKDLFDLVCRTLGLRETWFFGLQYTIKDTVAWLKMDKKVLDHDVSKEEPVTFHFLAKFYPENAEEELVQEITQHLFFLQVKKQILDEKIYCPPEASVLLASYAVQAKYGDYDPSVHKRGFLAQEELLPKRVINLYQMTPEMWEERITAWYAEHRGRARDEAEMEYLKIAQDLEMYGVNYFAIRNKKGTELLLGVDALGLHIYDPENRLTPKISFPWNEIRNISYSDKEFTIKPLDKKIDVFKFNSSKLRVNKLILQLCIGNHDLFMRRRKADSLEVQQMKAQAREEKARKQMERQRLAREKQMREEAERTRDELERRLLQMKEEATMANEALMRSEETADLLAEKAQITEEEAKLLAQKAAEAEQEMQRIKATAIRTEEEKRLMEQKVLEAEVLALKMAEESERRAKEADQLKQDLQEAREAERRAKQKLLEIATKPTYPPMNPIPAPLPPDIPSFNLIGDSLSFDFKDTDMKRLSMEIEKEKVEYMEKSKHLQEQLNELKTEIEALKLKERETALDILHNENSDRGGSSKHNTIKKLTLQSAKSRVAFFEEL

T5: MBP-NF2 A585W (human, UniProt P35240 18-595, A585W)
T5 sequence (looked up): T4 sequence (looked up) with A568W

B1: SUMO-His-tagged TEAD4 YBD domain (217-434) (domain or fragment, human, UniProt Q15561 217-434, looked up)
chain: RSVASSKLWMLEFSAFLEQQQDPDTYNKHLFVHIGQSSPSYSDPYLEAVDIRQIYDKFPEKKGGLKDLFERGPSNAFFLVKFWADLNTNIEDEGSSFYGVSSQYESPENMIITCSTKVCSFGKQVVEKVETEYARYENGHYSYRIHRSPLCEYMINFIHKLKHLPEKYMMNSVLENFTILQVVTNRDTQETLLCIAYVFEVSASEHGAQHHIYRLVKE
B2: His-TEAD4-YBD (domain or fragment, human, UniProt Q15561 217-434, looked up)
chain: B1 chain
B3: GST-NF2-507-595 (domain or fragment, human, UniProt P35240 507-595, looked up)
chain: FDFKDTDMKRLSMEIEKEKVEYMEKSKHLQEQLNELKTEIEALKLKERETALDILHNENSDRGGSSKHNTIKKLTLQSAKSRVAFFEEL

Tests used:
Test in all cases: pull-down
[1] = target: T1, GST-NF2 FERM domain (1-341 aa)
[2] = target: T2, GST-NF2 C-terminal half (342-595 aa)
[3] = target: T3, GST-tagged full-length NF2
MBP-NF2 (18-595) = target: T4, MBP-NF2 (18-595)
MBP-NF2 A585W = target: T5, MBP-NF2 A585W
His-TEAD4-YBD = target: B2

| binding result [1] | binding result [2] | binding result [3] | binding result (MBP-NF2 (18-595)) | binding result (MBP-NF2 A585W) | binding result (His-TEAD4-YBD) | Binder |
| --- | --- | --- | --- | --- | --- | --- |
| binds | binds | binds |  |  |  | B1 |
| binds |  |  | binds | binds |  | B2 |
|  |  |  |  |  | binds | B3 |
